Laboratory results published in article PMC6992696, “Supramolecular tholos-like architecture constituted by archaeal proteins without functional annotation” (Scientific Reports, 2020).
Values belong to the molecule of their own block, whether it stands above or below them.

B3: PbaA (PF0015) from Pyrococcus furiosus, full-length (natural protein, UniProt Q8U4Q9 1-242, looked up)
chain: MEEKKPVNLVLPEVENAIFIEGYPGVGLVGHIAANFLAKELDMDLIGYVDSLFIPPMSLILEGRPTPPLRFYGKNNIIIAIADIFLPPTLVNEIAKEIVNYLKKVNAEKVISLAGMGIGFFKDTFEVWGIGGSEEENKELESLGVKILKYGSITGMSGKLLWEASRAGLKSYVLLGETFGDRPDPRAAANVVEVLNKMLGLNVSVEPLLKEAEMIEEQLRRMHEQMEEARRKMERQYETMYL
notes: PbaA (PF0015), Pyrococcus furiosus, full-length; cloned from P. furiosus genomic DNA; Homopentameric ring when isolated; two pentameric rings in the 10:10 complex with PF0014; also called full-length PbaA; PbaA pentamer

Tests used:
[1] = molecular target: PbaA_(CΔ30), mutant PbaA with deletion of 30 C-terminal amino acid residues (Pyrococcus furiosus); test: SEC + other: negative stain EM; PbaA_(CΔ30) alone, in the absence of PF0014
[2] = molecular target: PbaA_(CΔ30), mutant PbaA with deletion of 30 C-terminal amino acid residues (Pyrococcus furiosus); test: cryo-EM structure; purified PbaA_(CΔ30)/PF0014 complex; map EMD-0755 at 7.3 Å with D5 symmetry and 8.5 Å with C1 symmetry
[3] = molecular target: B3; test: native MS; purified PbaA/PF0014 complex (20 μM) exchanged into 150 mM ammonium acetate pH 9.0, 2-fold diluted, nanoflow ESI, SYNAPT G2-Si; conditions: both partners purified
[4] = molecular target: the molecule itself; test: cryo-EM structure; hexahistidine-tagged PbaA/Trx-PF0014 complex treated with excess anti-histidine-tag monoclonal antibody for 2 h at 4 °C; map at 14 Å, C1 symmetry
[5] = molecular target: the molecule itself; test: HS-AFM; isolated proteins, top views on APTES-mica, tapping mode, room temperature

stoichiometry N [1]: 14 protomers
stoichiometry N [2]: 5 protomers
Molecule: PbaA_(CΔ30), mutant PbaA with deletion of 30 C-terminal amino acid residues (domain or fragment)

stoichiometry N [3]: 1 PF0014 per PbaA (10:10)
B1: PF0014 from Pyrococcus furiosus (natural protein, UniProt Q8U4R0 1-128, looked up)
chain: MVVEIPLLSGIARRTLDALMRNPIRTVEIRNARNYMTLEKVKEGDLVFLTYESLEDVMRGTEGIIAMVTRMEKSHQRVPWEESDEREISICRVQLKLVGLGRVVEVQEKNGVVFVKVREMLHHEISMG
notes: PF0014, Pyrococcus furiosus, an archaeal protein without functional annotation; Monomeric by HS-AFM when isolated; ten copies in the complex with PbaA

B2: N-terminally hexahistidine-tagged PbaA (natural protein, Pyrococcus furiosus)
chain: MEEKKPVNLVLPEVENAIFIEGYPGVGLVGHIAANFLAKELDMDLIGYVDSLFIPPMSLILEGRPTPPLRFYGKNNIIIAIADIFLPPTLVNEIAKEIVNYLKKVNAEKVISLAGMGIGFFKDTFEVWGIGGSEEENKELESLGVKILKYGSITGMSGKLLWEASRAGLKSYVLLGETFGDRPDPRAAANVVEVLNKMLGLNVSVEPLLKEAEMIEEQLRRMHEQMEEARRKMERQYETMYL
notes: PbaA (PF0015), Pyrococcus furiosus; The His tag was labelled with a monoclonal anti-histidine-tag antibody (R&D Systems) in the cryo-EM sample; the antibody is only a tool; May be the same preparation as m1 if the tag was never removed there; not shown: His6, N-terminal, kept
stoichiometry N [4]: 5 protomers

Molecule: B3
stoichiometry N [5]: 5 protomers
